In patent publication US20220175920A1:
Several values for one entry are separate records, joined by “and”; a condition that tells them apart may be missing. Identical values can stand only once. Blank lines part the entries; values can stand above or below the substance they belong to.

Tests used:
[1] = molecular target: human CD40 on cells (B cells, MDDCs, stably transfected CHO cells) (human) (UniProt P25942); assay: cell-based or functional assay
[2] = molecular target: human CD40 ectodomain human Fc fusion protein (human) (UniProt P25942); assay: competition flow cytometry: mouse mAb titrated into 2 ug/ml human CD40 ectodomain-human Fc, 1 h on ice, then added to human CD40L-transfected L cells; cell-bound CD40-Fc detected with anti-IgG-PE; blocked ligand: CD40L on L cells [left panel]
human CD40 ectodomain human Fc fusion protein (human), sequence (P25942 21-193): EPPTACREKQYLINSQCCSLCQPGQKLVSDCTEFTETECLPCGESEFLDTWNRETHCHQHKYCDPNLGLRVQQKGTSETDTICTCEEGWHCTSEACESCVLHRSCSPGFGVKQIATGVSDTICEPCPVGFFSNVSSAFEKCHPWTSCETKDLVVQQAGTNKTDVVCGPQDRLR

human CD40 on cells (B cells, MDDCs, stably transfected CHO cells) (human), sequence (P25942 21-277): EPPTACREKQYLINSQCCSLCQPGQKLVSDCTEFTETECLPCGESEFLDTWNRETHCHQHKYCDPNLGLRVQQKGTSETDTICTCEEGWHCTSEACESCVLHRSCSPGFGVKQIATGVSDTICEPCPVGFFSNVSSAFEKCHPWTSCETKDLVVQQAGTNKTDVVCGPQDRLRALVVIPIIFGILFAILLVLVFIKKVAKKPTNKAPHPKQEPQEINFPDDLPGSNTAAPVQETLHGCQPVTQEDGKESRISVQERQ

- EC50 (nM) B cell: 50% of maximum B cell proliferation (FIG. 10B) [1]: > 10 nM
- fold less active in inducing B cell proliferation than the 11B6 and 12B4-CD40L fusion proteins [1]: 10 fold
Substance: human IgG4 control mAb with CD40L fused to the L chain

- EC50 (nM) IL-12 p40, MDDC secretion [1]: > 1 nM and < 10 nM
- EC50 (nM) IL-15, MDDC secretion [1]: > 1 nM and < 10 nM
- EC50 (nM) TNFα, MDDC secretion [1]: > 1 nM and < 10 nM
- EC50/11B6-CD40L, IL-12 p40 [1]: 100
- EC50/11B6-CD40L, IL-15 [1]: 100
- EC50/11B6-CD40L, TNFα [1]: 100
Substance: MEGACD40L (Mega sCD40L) (ligand)

- IC50 (read off the curve) [2]: 0.1 mg/L
Substance: 12E12 (antibody)
